From US20170368132A1 (published 2017)
Where a chain is given by its changes, count along the chain named.

Assays:
[1] = target: T1, S. cerevisiae Rad51 (1-278) + H. sapiens Rad51 (218-339) (S. cerevisiae; H. sapiens, UniProt P25454 1-278); test: yeast two-hybrid, RAD51 hybrid construct
T1 construct: range 1-278; Y2H fusion in yeast; also called cerevisiae-sapiens hybrid construct of RAD51
T1 sequence: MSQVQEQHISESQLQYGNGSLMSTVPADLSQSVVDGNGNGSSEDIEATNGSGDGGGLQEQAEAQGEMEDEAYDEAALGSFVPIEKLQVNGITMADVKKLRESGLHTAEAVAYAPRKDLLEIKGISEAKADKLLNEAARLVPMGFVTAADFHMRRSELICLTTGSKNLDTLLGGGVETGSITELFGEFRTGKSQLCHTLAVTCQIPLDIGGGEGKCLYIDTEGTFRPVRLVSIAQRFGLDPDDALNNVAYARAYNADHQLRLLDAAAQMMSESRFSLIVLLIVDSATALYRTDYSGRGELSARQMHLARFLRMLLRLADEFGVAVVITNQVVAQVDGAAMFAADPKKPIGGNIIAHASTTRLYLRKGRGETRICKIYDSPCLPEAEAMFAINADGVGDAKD

Rad51 (A190L; A192L) = target: T2, Rad51 (A190L; A192L) (human, UniProt Q06609 1-339); test: yeast two-hybrid, human RAD51 mutant
T2 construct: Human RAD51 mutant tested by Y2H; also called human RAD51 A190L A192L
T2 chain: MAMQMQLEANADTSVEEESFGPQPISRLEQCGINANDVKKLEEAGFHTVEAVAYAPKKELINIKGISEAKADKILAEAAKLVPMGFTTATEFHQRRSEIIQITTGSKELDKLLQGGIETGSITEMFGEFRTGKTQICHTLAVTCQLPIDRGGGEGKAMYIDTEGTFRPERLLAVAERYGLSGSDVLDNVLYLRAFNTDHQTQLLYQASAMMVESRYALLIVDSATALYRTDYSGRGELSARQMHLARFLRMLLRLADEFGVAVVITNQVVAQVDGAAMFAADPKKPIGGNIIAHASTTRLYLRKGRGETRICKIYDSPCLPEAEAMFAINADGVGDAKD
Experimental: The ability of peptides to bind human RAD51 with various mutations was then tested by Y2H assay. […] While mutations affecting BRCA2 binding had no effect on peptide binding, mutations that affected RAD51-AP1 binding did disrupt peptide binding. As these mutations were at residues 202, 205, and 206, they were consistent with the previous fusion data showing binding somewhere in the 190-218 region, and indicated the peptide SEQ ID NO.:5 contacts at least residues 202, 205, and 206 of RAD51.

H. sapiens Rad51 = target: T3, H. sapiens Rad51 (H. sapiens, UniProt Q06609 1-339); test: yeast two-hybrid, growth on -ADE -HIS
T3 construct: Expressed in yeast as a two-hybrid fusion; also called human RAD51
T3 sequence: T2 chain with L190A, L192A
Experimental: (§1) RAD51-binding peptides were tested for ability to bind RAD51 of several different species using a “conventional” Y2H assay, where interaction between the two-hybrid pair drove expression of ADE2 and HIS genes. In this Y2H assay the two-hybrid pair was RAD51 and the compound 5 peptide sequence (SEQ ID NO.:5), so that cells having the interaction would survive (+) and cells not having the interaction would die (−) on selective media (−ADE, −HIS).

S. cerevisiae Rad51 = target: T4, S. cerevisiae Rad51 (S. cerevisiae, UniProt P25454 1-400, limits assumed); test: yeast two-hybrid, growth on -ADE -HIS
T4 construct: Y2H fusion in yeast
T4 sequence (looked up): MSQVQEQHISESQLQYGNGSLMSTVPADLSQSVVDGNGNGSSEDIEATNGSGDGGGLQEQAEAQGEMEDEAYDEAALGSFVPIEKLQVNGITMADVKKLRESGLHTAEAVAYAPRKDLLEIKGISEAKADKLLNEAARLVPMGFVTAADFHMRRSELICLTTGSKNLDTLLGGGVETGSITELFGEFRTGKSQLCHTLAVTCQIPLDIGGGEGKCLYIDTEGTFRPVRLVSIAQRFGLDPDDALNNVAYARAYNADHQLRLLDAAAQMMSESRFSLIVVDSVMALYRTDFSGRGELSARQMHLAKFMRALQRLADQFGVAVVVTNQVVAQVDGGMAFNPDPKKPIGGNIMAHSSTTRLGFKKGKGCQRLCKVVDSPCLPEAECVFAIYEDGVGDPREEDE
Experimental: as §1

S. pombe Rad51 = target: T5, S. pombe Rad51 (S. pombe, UniProt P36601 1-365, limits assumed); test: yeast two-hybrid, growth on -ADE -HIS
T5 construct: Y2H fusion in yeast
T5 sequence (looked up): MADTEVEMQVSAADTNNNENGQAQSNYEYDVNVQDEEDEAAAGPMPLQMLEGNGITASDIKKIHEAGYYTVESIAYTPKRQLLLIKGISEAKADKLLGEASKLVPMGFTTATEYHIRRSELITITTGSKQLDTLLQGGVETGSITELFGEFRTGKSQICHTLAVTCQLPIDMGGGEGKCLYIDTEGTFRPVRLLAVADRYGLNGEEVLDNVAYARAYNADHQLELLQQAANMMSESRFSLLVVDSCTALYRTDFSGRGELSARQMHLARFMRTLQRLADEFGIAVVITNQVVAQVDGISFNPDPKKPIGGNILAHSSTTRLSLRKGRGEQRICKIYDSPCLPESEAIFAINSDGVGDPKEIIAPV
Experimental: as §1

G. gallus Rad51 = target: T6, G. gallus Rad51 (G. gallus, UniProt P37383 1-339, limits assumed); test: yeast two-hybrid, growth on -ADE -HIS
T6 construct: Y2H fusion in yeast
T6 sequence (looked up): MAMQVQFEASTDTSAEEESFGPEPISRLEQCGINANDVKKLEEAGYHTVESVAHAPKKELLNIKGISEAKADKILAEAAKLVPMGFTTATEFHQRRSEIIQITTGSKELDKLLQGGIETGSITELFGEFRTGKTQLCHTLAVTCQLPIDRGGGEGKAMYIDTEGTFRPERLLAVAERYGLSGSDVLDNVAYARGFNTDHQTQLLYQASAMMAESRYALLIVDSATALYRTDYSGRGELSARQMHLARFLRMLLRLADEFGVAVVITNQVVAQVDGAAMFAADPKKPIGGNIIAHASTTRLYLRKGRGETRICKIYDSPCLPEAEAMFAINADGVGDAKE
Experimental: as §1

Binder: KRRRRRRRKRLGVRLRVSRML [compound 5 peptide sequence (SEQ ID NO.:5)]
- binding result [1]: no binding
- binding result (Rad51 (A190L; A192L)): binds
- binding result (H. sapiens Rad51): binds
- binding result (S. cerevisiae Rad51): no binding
- binding result (S. pombe Rad51): binds
- binding result (G. gallus Rad51): binds
